Laboratory results published in the RNAGym collection of RNA variant scans (doi:10.1073/pnas.2313332121).
This sample holds only a part of the variants without activity.

B1: TPR 5TU (parent)
chain: GGAUCUUCUCGAUCUAACAAAAAAGACAAAUCUGCCACAAAGCUUGAGAGCAUCUUCGGAUGCAGAGGCGGCAGCCUUCGGUGGCGCGAUAGCGCCAACGUUCUCAACUAUGACACGCAAAACGCGUGCUCCGUUGAAUGGAGUUUAUCAUG

Variants of: B1
Experiment: polymerase ribozyme fitness, log enrichment relative to wild type (log ratio); higher = more active; in vitro selection for triplet polymerase activity
In short: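 Streptavidin-bead capture of gel-excised extended constructs, followed by RT-PCR, closed a single triplicate in vitro selection round. That round began by annealing PCR-built, transcribed mutant libraries of each subunit of a heterodimeric triplet polymerase ribozyme with a biotinylated primer, the partner subunit and triplets, then incubating them frozen at −7 °C. After Illumina sequencing of inputs and outputs, genotypes needed ≥10 input reads and ≥1 read per output. Fitness is the base-2 logarithm of genotype enrichment over wild-type enrichment, using inverse-variance-weighted replicate averages.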

Variant | polymerase ribozyme fitness (log ratio)
GGAUCUUCUCGAUCUAACAAAUAAGACAAAUCUGCCACAAAGCUUGAGAGCAUCUUCGGAUGCAGAGGCGGCAGCCUUCGGUGGCGCGAUAGCGCCAACGUUCUCAACUAUGACACGCAAAACGCGAGCUCCGUUGAAUGGAGUUUAUCAUG [A22U U127A] | -3.54
GGAUCUUCUCGAUCUAACAAAACAGACAAAUCUGCCACCAAGCUUGAGAGCAUCUUCGGAUGCAGAGGCGGCAGCAUUCGGUGGCGCGAUAGCGCCGACGUUCUCAACUAUGACACGCAAAACGCGUGCUCCGUUGAAUGGACUUUAUCAUG [A23C A39C C76A A97G G143C] | -3.82
GGAUCUUCUCGAUCUAACAAAUAAGACAAAUCUGCCACAAAGCUUGAGAGCAUCUUCGGAUGCAGAGGCGGCAGCCUUCGGUGGCGCGAUAGCGCCAACGUUCUCAACUAUGACACGCAAAACGCGUGCUCCGUUGAAUGGAGAUUAUCAUG [A22U U144A] | 0.777
GGAUCUUCUCGAUCUAACAAAACAGACAAAUUUGCCACAAAGCUUGAGAGCAUCUUCGGAUGCGGAGGCGGCAGCCUUCGAUGGCGGGAUAGCGUAGACGUUCUCAACUAUGACACGCAAAACGCGUGCUCCGUUGACUGUAGUUUAUCAUG [A23C C32U A64G G81A C87G C95U C96A A97G A138C G141U] | ≤ -4.2
GGAUCUUCUCGAUCUAACAAAUAAGACAAAUCUGCCACAAAGCUUGAGAGCAUCUACGGAUGCAGAGGCGGCAGCCUUCGGUGGCGCGAUAACGCCAACGUUCUCAACUAUGACACGCAAAACGCGUGCUCCGUUGAAUGGAGUUUAUCAUG [A22U U56A G92A] | -3.22
GGAUCUUCUCGAUCUAACAAAUAAGACAAAUCUGCCACAAAGCUUGAGAGCAUCUUCGGAUGCAGAGGCGGCAGCCUUCGGAGGCGCGAUAGCGCCAACGUUCUCAACUAUGACACGCAAAACGCGUGCUCCGUUGAAUGGAGUUUAUCAUG [A22U U82A] | 0.472
GGAUCUUCUCGAUCUAACAAAACAGACCAAUCUGCCACAAAGCUUAAGAGCAUCAUCGGAUGCAGAGGCGGCAGCCUUCGGUGGCGCGAUAGCGCUAACGUUCUCAACUAUGACACGCAAAACGCGUGCUCCGUUGAAUGGAGUUUAUCAUG [A23C A28C G46A U55A C96U] | ≤ -4.2
GGAUCUUCUCGAUCUAACAAAUAAGACAAAUCUGCCACAAAGCUUGAGAGCAUCUUCGGAUGCAGAGGCGGCAGCCUUCGGUGGCGCGAUAGCGCCAACGUUCUCAACUAUGACACGCAAAACGCGUGCUCCGUCGAAUGGAGUUUAUCAUG [A22U U135C] | -1.64
GGAUCUUCUCGAUCUAACAAAACAGACAAAUCUGCCACAAAGCUUGAGAGCAUCUUCGGAUGCAGAGGCGGCAGCCUUCGGUGGCGCGAUAGCGCCAACGUUCUCAACUAUGACACGCAAAACGCGUGCUCCGUUGAAUGGAGUUUAUCAUG [A23C] | -3.48
GGAUCUUCUCGAUCUAACAAAACAGACAAAUCUGGCACAAAGCUUGAGAGCAUCUUCAGAUGCAGAGGCGGCAGCCUUCGGUGGCGCGAUAGCGACAAAGUUCUCAACUAUGACACGCAAAACGCGUGCUCCGUUGAAUGGAGUUUAUUAUG [A23C C35G G58A C95A C99A C149U] | ≤ -4.2
GGAUCUUCUCGAUCUAACAAAACAGAGAAAUCUGCCACAAAGCUUGAGAGCAUCUUCGGGUGCAGAGGCGGCAGCCUUCGGUGGCGCGAUAGCGCCCACGUUCUCAACUAUGACACGCAAAACUCGUGCUCCGUUGAAUGGAGUUUAUCAUG [A23C C27G A60G A97C G124U] | ≤ -4.2
GGAUCUUCUCGAUCUAACAAAACAGACAAAUCUGCCAAAAAGCUUGAGAGUAUCCUCGGAUGCAGAGGCGGCGGCCUUCGGUGGCGCGAUAUCGCCAACGUUCUCAACUAUGACACGCAAAACGCGUGCUUCGUUGACUGGAGUUUAUCAUG [A23C C38A C51U U55C A73G G92U C131U A138C] | ≤ -4.2
GGAUCUUCUCGAUCUAACAAAUAAGACAAAUCUGCCACAAAGCUUGAGAGCAUCUUCGGAUGCAGAGGCGGCAGCCUUCGGUGGCGCGAUAGCGCCAACGUGCUCAACUAUGACACGCAAAACGCGUGCUCCGUUGAAUGGAGUUUAUCAUG [A22U U102G] | -2.64
GGAUCUUCUCGAUCUAACAAAACAGACAAAUCUGCCACAAAGCUUGAGAGCAUCUUCGGAUGCAGAGGCGGCAGCCUUCGGUGGCGCGAUAGCGCCAUCGUUCUCAACUAUGUCACGCAAAACGCGUGCUCCGUUGAAUGGAGUUUAUCAUG [A23C A98U A113U] | -4.18
GGAUCUUCUCGAUCUAACAAAACAGACAAAUCUGCUACAAAGCUUGAGAGCAUCUUCGGCUGCAGAGGCGGCAGCCUUCGGUGGCACGAUAGCGCCAACGUUCUCAACUAUGACACGCAAUACGCGUGCUCCGUUGAAUGGAGUUUAUCAUG [A23C C36U A60C G86A A121U] | ≤ -4.2
GGAUCUUCUCGAUCUAACAAAACCGACAAAUCUGCCACAAAGCUUGAGAGCAUCUUCGGAGGCAGAGGCGGCAGCCUUCGGUGGCGCGAUAGCGCCAACGUUCUCAACUUUGACACGCAAAACGCGUGCUCCGUUGAAUGGAGUUUAUCAUG [A23C A24C U61G A110U] | ≤ -4.2
GGAUCUUCUCGAUCUAACAAAACAGACAUAUCUGCCAUAAAGCUUGAGAGCAUAUUCGGAUGCAGAGGCGGCAGCCUUCGGUGACGCGAUAGCGCCAUCGUUCUCGACUAUGACACGCAAAACGCGUGCUCCGUUGUAUGGAGUUUAUCAUG [A23C A29U C38U C54A G84A A98U A106G A137U] | ≤ -4.2
GGAUCUUCUCGAUCUAACAAAACAGACAAAUCUGCCACAAUGCUUGAGAGCAUCUUCGGAUGCAGAGUCGGCAGCCUUCGGUGGCGCGAUAGUGCCAACGUUCUCGACUAUGACACGCAAAACGCGUGCUCCGUUGAAUGGAGUUUAUCAUG [A23C A41U G68U C93U A106G] | ≤ -4.2
GGAUCUUCUCGAUCUAACAAAACAGACAAAUCUGCCACAAAGAUUGAGAGCUUCUUCGGAUGCAGAGGCGGCAGCCUUCGGUGGCGCGAUAGCGCCAACGUUCUCAACUAUGACACGCCAAACGCGUGCUCCGUGGAAAAGGGUUUAUCAUG [A23C C43A A52U A119C U135G U139A G140A A142G] | ≤ -4.2
